T1: human CD73 (huCD73) protein, antigen of the Biacore assay (human, UniProt P21589 27-547, limits assumed)
T1 construct: also called human CD73 antigen
T1 sequence (looked up): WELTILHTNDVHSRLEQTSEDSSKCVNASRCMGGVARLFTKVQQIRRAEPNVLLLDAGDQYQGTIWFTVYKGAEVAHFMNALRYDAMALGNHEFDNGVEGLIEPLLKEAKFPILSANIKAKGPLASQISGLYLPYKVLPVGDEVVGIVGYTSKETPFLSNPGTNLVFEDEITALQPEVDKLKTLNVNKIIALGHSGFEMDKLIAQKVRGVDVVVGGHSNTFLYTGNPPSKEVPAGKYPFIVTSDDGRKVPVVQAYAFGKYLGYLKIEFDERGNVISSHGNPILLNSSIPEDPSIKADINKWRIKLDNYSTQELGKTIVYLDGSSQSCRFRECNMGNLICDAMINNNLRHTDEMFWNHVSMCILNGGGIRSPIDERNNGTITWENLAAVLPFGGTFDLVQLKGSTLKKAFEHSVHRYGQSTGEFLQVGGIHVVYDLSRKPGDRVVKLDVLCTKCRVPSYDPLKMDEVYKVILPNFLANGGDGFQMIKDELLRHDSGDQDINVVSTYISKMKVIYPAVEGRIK


Target: T1, human CD73 (huCD73) protein, antigen of …
Assay: SPR Biacore T200; antibody captured on Protein A chip, CD73 in flow; 1:1 Langmuir
Description: In this experiment, Biacore instrument was used to determine the affinity of the humanized anti-CD73 antibodies to be tested with human CD73 (huCD73) and monkey CD73 (cynoCD73).
A certain amount of test antibody was affinity-captured with Protein A biosensing chip (Cat. #29127556, GE), and then a certain concentration of human or monkey CD73 antigen was allowed to flow through the surface of the chip. The reaction signals were detected in real time with Biacore instrument (Biacore T200, GE) to generate a binding and dissociation curve. At the end of each cycle, after the dissociation was completed, the biosensor chip was washed and regenerated with Glycine-HCl, pH1.5 (Cat. #BR-1003-54, GE). The running buffer for the assay was 1×HBS-EP buffer solution (Cat. #BR-1001-88, GE).
The data obtained from the experiment was fitted against (1:1) Langmuir model using GE Biacore T200 Evaluation version 3.0 software, and the affinity values were obtained, as shown in Table 12 and Table 13 for details.

| Kd | koff | kon | Binder |
| --- | --- | --- | --- |
| 0.212 nM | 3.75e-05 s⁻¹ | 177000 M⁻¹ s⁻¹ | Hab127.31e (antibody, V domains shown, VL3 + VH1e, HCDR2 hot-spot variant; full-length antibody) VH: EVQLVQSGAEVKKPGASVKVSCKASGYTFTAYFMNWVRQAPGQGLEWMGRIYHNEGDTFYSQKFKGRVTMTVDKSTSTVYMELSSLRSEDTAVYYCATSYVGDWGQGTTVTVSS VL: DIQMTQSPSSLSASVGDRVTITCRASQDIGDSLNWLQQKPGGALKRLIYATSSLDSGVPSRFSGSGSGTEYTLTISSLQPEDFATYYCLQYASFPWTFGGGTKVEIK |
| 0.257 nM | 4.2e-05 s⁻¹ | 163000 M⁻¹ s⁻¹ | Hab127.31 (antibody, V domains shown, VL3 + VH1; recombined with human heavy and light constant regions) VH: EVQLVQSGAEVKKPGASVKVSCKASGYTFTAYFMNWVRQAPGQGLEWMGRIYHNNGDTFYSQKFKGRVTMTVDKSTSTVYMELSSLRSEDTAVYYCATSYVGDWGQGTTVTVSS VL: DIQMTQSPSSLSASVGDRVTITCRASQDIGDSLNWLQQKPGGALKRLIYATSSLDSGVPSRFSGSGSGTEYTLTISSLQPEDFATYYCLQYASFPWTFGGGTKVEIK |
| 0.79 nM | 0.000119 s⁻¹ | 150000 M⁻¹ s⁻¹ | Hab127.13 (antibody, V domains shown, VL1 + VH3; recombined with human heavy and light constant regions) VH: EVQLVQSGAEVKKPGASVKVSCKASGYTFTAYFMNWVMQAPGQGLEWIGRIYHNNGDTFYSQKFKGRATLTVDKSTSTVYMELSSLRSEDTAVYYCATSYVGDWGQGTTVTVSS VL: DIQMTQSPSSLSASVGDRVTITCRASQDIGDSLNWYQQKPGKAPKRLIYATSSLDSGVPSRFSGSGSGTEFTLTISSLQPEDFATYYCLQYASFPWTFGGGTKVEIK |
| 0.28 nM | 4.48e-05 s⁻¹ | 160000 M⁻¹ s⁻¹ | Hab127.24 (antibody, V domains shown, VL2 + VH4; recombined with human heavy and light constant regions) VH: EVQLVQSGAEVKKPGASVKVSCKASGYTFTAYFMNWVMQAPGQSLEWIGRIYHNNGDTFYSQKFKGRATLTVDKSTSTVYMELRSLRSEDTAVYYCATSYVGDWGQGTTVTVSS VL: DIQMTQSPSSLSASVGDRVTITCRASQDIGDSLNWLQQKPGKAPKRLIYATSSLDSGVPSRFSGSGSGTEYTLTISSLQPEDFATYYCLQYASFPWTFGGGTKVEIK |
| 0.211 nM | 3.69e-05 s⁻¹ | 175000 M⁻¹ s⁻¹ | Hab127.33 (antibody, V domains shown, VL3 + VH3; recombined with human heavy and light constant regions) VH: EVQLVQSGAEVKKPGASVKVSCKASGYTFTAYFMNWVMQAPGQGLEWIGRIYHNNGDTFYSQKFKGRATLTVDKSTSTVYMELSSLRSEDTAVYYCATSYVGDWGQGTTVTVSS VL: DIQMTQSPSSLSASVGDRVTITCRASQDIGDSLNWLQQKPGGALKRLIYATSSLDSGVPSRFSGSGSGTEYTLTISSLQPEDFATYYCLQYASFPWTFGGGTKVEIK |
| 0.219 nM | 4.8e-05 s⁻¹ | 219000 M⁻¹ s⁻¹ | Hab127.31a (antibody, V domains shown, VL3 + VH1a, HCDR2 hot-spot variant; full-length antibody) VH: EVQLVQSGAEVKKPGASVKVSCKASGYTFTAYFMNWVRQAPGQGLEWMGRIYHNQGDTFYSQKFKGRVTMTVDKSTSTVYMELSSLRSEDTAVYYCATSYVGDWGQGTTVTVSS VL: DIQMTQSPSSLSASVGDRVTITCRASQDIGDSLNWLQQKPGGALKRLIYATSSLDSGVPSRFSGSGSGTEYTLTISSLQPEDFATYYCLQYASFPWTFGGGTKVEIK |
| 0.205 nM | 4.76e-05 s⁻¹ | 232000 M⁻¹ s⁻¹ | Hab127.31c (antibody, V domains shown, VL3 + VH1c, HCDR2 hot-spot variant; full-length antibody) VH: EVQLVQSGAEVKKPGASVKVSCKASGYTFTAYFMNWVRQAPGQGLEWMGRIYHNTGDTFYSQKFKGRVTMTVDKSTSTVYMELSSLRSEDTAVYYCATSYVGDWGQGTTVTVSS VL: DIQMTQSPSSLSASVGDRVTITCRASQDIGDSLNWLQQKPGGALKRLIYATSSLDSGVPSRFSGSGSGTEYTLTISSLQPEDFATYYCLQYASFPWTFGGGTKVEIK |
| 0.585 nM | 7.93e-05 s⁻¹ | 136000 M⁻¹ s⁻¹ | Hab127.31i (antibody, V domains shown, VL3 + VH1i, HCDR2 hot-spot variant; full-length antibody) VH: EVQLVQSGAEVKKPGASVKVSCKASGYTFTAYFMNWVRQAPGQGLEWMGRIYHHNVDTFYSQKFKGRVTMTVDKSTSTVYMELSSLRSEDTAVYYCATSYVGDWGQGTTVTVSS VL: DIQMTQSPSSLSASVGDRVTITCRASQDIGDSLNWLQQKPGGALKRLIYATSSLDSGVPSRFSGSGSGTEYTLTISSLQPEDFATYYCLQYASFPWTFGGGTKVEIK |
| 0.204 nM | 4.48e-05 s⁻¹ | 220000 M⁻¹ s⁻¹ | Hab127.31b (antibody, V domains shown, VL3 + VH1b, HCDR2 hot-spot variant; full-length antibody) VH: EVQLVQSGAEVKKPGASVKVSCKASGYTFTAYFMNWVRQAPGQGLEWMGRIYHNLGDTFYSQKFKGRVTMTVDKSTSTVYMELSSLRSEDTAVYYCATSYVGDWGQGTTVTVSS VL: DIQMTQSPSSLSASVGDRVTITCRASQDIGDSLNWLQQKPGGALKRLIYATSSLDSGVPSRFSGSGSGTEYTLTISSLQPEDFATYYCLQYASFPWTFGGGTKVEIK |
| 0.292 nM | 4.86e-05 s⁻¹ | 166000 M⁻¹ s⁻¹ | Hab127.22 (antibody, V domains shown, VL2 + VH2; recombined with human heavy and light constant regions) VH: EVQLVQSGAEVKKPGASVKVSCKASGYTFTAYFMNWVMQAPGQGLEWMGRIYHNNGDTFYSQKFKGRVTMTVDKSTSTVYMELSSLRSEDTAVYYCATSYVGDWGQGTTVTVSS VL: DIQMTQSPSSLSASVGDRVTITCRASQDIGDSLNWLQQKPGKAPKRLIYATSSLDSGVPSRFSGSGSGTEYTLTISSLQPEDFATYYCLQYASFPWTFGGGTKVEIK |

Continued, binder first:

| Binder | Kd | koff | kon |
| --- | --- | --- | --- |
| Hab127.32 (antibody, V domains shown, VL3 + VH2; recombined with human heavy and light constant regions) VH: EVQLVQSGAEVKKPGASVKVSCKASGYTFTAYFMNWVMQAPGQGLEWMGRIYHNNGDTFYSQKFKGRVTMTVDKSTSTVYMELSSLRSEDTAVYYCATSYVGDWGQGTTVTVSS VL: DIQMTQSPSSLSASVGDRVTITCRASQDIGDSLNWLQQKPGGALKRLIYATSSLDSGVPSRFSGSGSGTEYTLTISSLQPEDFATYYCLQYASFPWTFGGGTKVEIK | 0.277 nM | 4.6e-05 s⁻¹ | 166000 M⁻¹ s⁻¹ |
| Hab127.31h (antibody, V domains shown, VL3 + VH1h, HCDR2 hot-spot variant; full-length antibody) VH: EVQLVQSGAEVKKPGASVKVSCKASGYTFTAYFMNWVRQAPGQGLEWMGRIYHLNVDTFYSQKFKGRVTMTVDKSTSTVYMELSSLRSEDTAVYYCATSYVGDWGQGTTVTVSS VL: DIQMTQSPSSLSASVGDRVTITCRASQDIGDSLNWLQQKPGGALKRLIYATSSLDSGVPSRFSGSGSGTEYTLTISSLQPEDFATYYCLQYASFPWTFGGGTKVEIK | 0.441 nM | 6.66e-05 s⁻¹ | 151000 M⁻¹ s⁻¹ |
| Hab127.21 (antibody, V domains shown, VL2 + VH1; recombined with human heavy and light constant regions) VH: EVQLVQSGAEVKKPGASVKVSCKASGYTFTAYFMNWVRQAPGQGLEWMGRIYHNNGDTFYSQKFKGRVTMTVDKSTSTVYMELSSLRSEDTAVYYCATSYVGDWGQGTTVTVSS VL: DIQMTQSPSSLSASVGDRVTITCRASQDIGDSLNWLQQKPGKAPKRLIYATSSLDSGVPSRFSGSGSGTEYTLTISSLQPEDFATYYCLQYASFPWTFGGGTKVEIK | 0.333 nM | 5.4e-05 s⁻¹ | 162000 M⁻¹ s⁻¹ |
| Hab127.31f (antibody, V domains shown, VL3 + VH1f, HCDR2 hot-spot variant; full-length antibody) VH: EVQLVQSGAEVKKPGASVKVSCKASGYTFTAYFMNWVRQAPGQGLEWMGRIYHNHGDTFYSQKFKGRVTMTVDKSTSTVYMELSSLRSEDTAVYYCATSYVGDWGQGTTVTVSS VL: DIQMTQSPSSLSASVGDRVTITCRASQDIGDSLNWLQQKPGGALKRLIYATSSLDSGVPSRFSGSGSGTEYTLTISSLQPEDFATYYCLQYASFPWTFGGGTKVEIK | 0.193 nM | 4.33e-05 s⁻¹ | 224000 M⁻¹ s⁻¹ |
| Hab127.31g (antibody, V domains shown, VL3 + VH1g, HCDR2 hot-spot variant; full-length antibody) VH: EVQLVQSGAEVKKPGASVKVSCKASGYTFTAYFMNWVRQAPGQGLEWMGRIYHQNVDTFYSQKFKGRVTMTVDKSTSTVYMELSSLRSEDTAVYYCATSYVGDWGQGTTVTVSS VL: DIQMTQSPSSLSASVGDRVTITCRASQDIGDSLNWLQQKPGGALKRLIYATSSLDSGVPSRFSGSGSGTEYTLTISSLQPEDFATYYCLQYASFPWTFGGGTKVEIK | 0.319 nM | 5.18e-05 s⁻¹ | 163000 M⁻¹ s⁻¹ |
| Hab127.14 (antibody, V domains shown, VL1 + VH4; recombined with human heavy and light constant regions) VH: EVQLVQSGAEVKKPGASVKVSCKASGYTFTAYFMNWVMQAPGQSLEWIGRIYHNNGDTFYSQKFKGRATLTVDKSTSTVYMELRSLRSEDTAVYYCATSYVGDWGQGTTVTVSS VL: DIQMTQSPSSLSASVGDRVTITCRASQDIGDSLNWYQQKPGKAPKRLIYATSSLDSGVPSRFSGSGSGTEFTLTISSLQPEDFATYYCLQYASFPWTFGGGTKVEIK | 0.847 nM | 0.000118 s⁻¹ | 140000 M⁻¹ s⁻¹ |
| Hab127.23 (antibody, V domains shown, VL2 + VH3; recombined with human heavy and light constant regions) VH: EVQLVQSGAEVKKPGASVKVSCKASGYTFTAYFMNWVMQAPGQGLEWIGRIYHNNGDTFYSQKFKGRATLTVDKSTSTVYMELSSLRSEDTAVYYCATSYVGDWGQGTTVTVSS VL: DIQMTQSPSSLSASVGDRVTITCRASQDIGDSLNWLQQKPGKAPKRLIYATSSLDSGVPSRFSGSGSGTEYTLTISSLQPEDFATYYCLQYASFPWTFGGGTKVEIK | 0.276 nM | 4.59e-05 s⁻¹ | 166000 M⁻¹ s⁻¹ |
